According to the nanobody polyreactivity screen of Harvey et al. (2022):

Test: yeast display, Sf9 membrane polyspecificity reagent, FACS + sequencing; frameworks hold sequencing errors
Method in brief: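 Using colony PCR, genes from sorted yeast display clones were amplified, then sequenced on MiSeq at 2 × 250 and filtered by CDR length. The clones had been stained with 10% biotinylated, detergent-solubilized Sf9 membrane reagent for 1 hour at 4 °C and sorted by FACS into low and high (top ~1%) gates on anti-HA and streptavidin fluorescence. Polyreactivity labels come from the gate of origin.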

QVQHVDSGGGLVQARGTLRLSCSASGRNFGIYTMGWYRQPPVKERELVAAISWRGGSTYYADSVKGRFTISRDNAKNTVYFQLNSLKPEDTAVYYCGKTQPGWRPVRDQIRYGYWGQGTQVTVSA
polyreactivity (PSR sort gate): high polyreactivity

QVQHVDSGGGLVQEGGSLRLICAASGSIFEQYTMGWYIQAPGKERELVAAISRRSGRTYYADSVKGRFTISRDNAKNTVYLQMNSLKPADTAVYYCAAQHAIYRNPGLDDYWGQGTQVTVSS
polyreactivity (PSR sort gate): high polyreactivity

QVQHVESAAGLVQAGGSLRLTCAASGSIFRVYTMGWSRQAPGKERELVAAISRSGGRTYYADSVKGRFTISRDNAKNTVYLQMNSLKPEDTAVYYCAKRGRVTYPYYYWGQGTQVTVSS
polyreactivity (PSR sort gate): high polyreactivity

QVQHVESAGGLVQAGGILRLSCAASGSTFVGNAMGWYRQAPGKEREWVATISNSGGRTDYADSVKGRFTISRDNAKNTVYLQMNSLKPEDTAVYYCAADHPAFGPGYSFDYWGQGTQVTVSS
polyreactivity (PSR sort gate): low polyreactivity

QVQHVESAGGLVQAGGSLRLSCAASARTFRYYAMGWYRQSPGKERELVAAINYSGGRTYYADSVKGRFTISRDNAKITVYLQMNSLNPEDTAVYYCNAVLGSYLPKFDYWGQGTQVTVSS
polyreactivity (PSR sort gate): high polyreactivity

QVQHVESARGLVHAGGSLRLSCAASGGTFQYYAMGLSRQAPGKERELVAAISSSGSTYYADSVKGRFTISRDNAKNTVYLQMNSLKPEDTAVYYCAAGHISIYYYTFYYWGQGTQVTVSS
polyreactivity (PSR sort gate): high polyreactivity

QVQHVESGAGLVQAAGSLRLSCAASGSTFSSYALGWYRQAPGKERELVAAISHGDSTYYADSVKGRFTISRDNAKNTVYLQMNSLKPEDSAVYYCAALHEVWGVDYWGQGTHVTVSS
polyreactivity (PSR sort gate): low polyreactivity

QVQHVESGARLVQAGGSLRLSCAASGHIFFDYTMGWSRQAPGKERELVAGITIGGSTNYADSVKGRFTISRDNAKNTVYLQMNSLKPEDTAVYYCNVVKYVYIYSYWEYYYWGQGTQVTVSS
polyreactivity (PSR sort gate): low polyreactivity

QVQHVESGGALVKAGGSLRIRCAASGITFSKYAMGWYRQAPGKEMELVAAITRSGGSTYYADSVKGRFTISRDNGKNTVYLQMNSLKPEDTAVYSCIARGYFTGGDGGSGYWGQVTQVTVSS
polyreactivity (PSR sort gate): high polyreactivity

QVQHVESGGALVQAGGSLRLSCAASGSTFTRNAMGWDRHAPGKERELVAAITSSGTSTYYADSVKGRFTISRDNAKNTVYLQMNSLKPEATAVYYCAAGIQSTYPKGGYRVTYYYWGQGTQVTVSS
polyreactivity (PSR sort gate): high polyreactivity

QVQHVESGGCLDQAGGSLRLSCAASGIFRTNARGWYRTAPGKERELVAGISSGGGTNYADSVKGRFTISRDNAKNTVYLQMNSLKPEDTAVYSCAKERIYFYYWYVYSDLVYEYDYCGQGTQVTVSS
polyreactivity (PSR sort gate): low polyreactivity

QVQHVESGGGFVQAGGSLRLSCAASGITFYDYTMGWYRPAPGKERELVDAITSSGVSTYYADSVKGRFTISRDNAKKTVYLQMNSLKPEDTAVYYCATDAWSVYSYLAFTYDYWGQGTQVTVSS
polyreactivity (PSR sort gate): low polyreactivity

QVQHVESGGGIVQAGGSLRLSCAASGGIFGYYAMGWYRQAPGKEREFVATITRGGGSTYYADSVKGRFTISRDNAKNTVYLQMNSLKPEDSAVYYCNAKPSYYQRYIYWGQGTQVTVSS
polyreactivity (PSR sort gate): high polyreactivity

QVQHVESGGGIVQAGGSLRLSCAASVRTIPYNAMGRYRQAPGKERELVAAISTGGSTNYADSVKGRFTISRDNAKNTVYLQMNSLKPEDTAVYYCNTRYRWARNWAYYYWGQGTQVTVSS
polyreactivity (PSR sort gate): high polyreactivity

QVQHVESGGGIVQAGGSLRLTCAASGSTFGGNGMGWYRQAPGKEREFVATNTWRSVSTYYADSVKGRFTISRDNAKNTDFLQMISLKPEDTAVYYCAARLYRFASYRMDYWGQGTQVTVSS
polyreactivity (PSR sort gate): high polyreactivity

QVQHVESGGGIVQAVGSLRLSCAASGSIFYYNAMGWYRQAPGKERELVAAISSGGSTYYADSVKGRFTISRDNAKNTVYLQMNSLKPEDTAVYYCAAKPAFRYLYSRYYPELGGYWGQGTQVTVSS
polyreactivity (PSR sort gate): high polyreactivity

QVQHVESGGGLFQAGGSLRLSCAASGRIFSYYAMGWYRQAPGKERELVAAINWNGGRTYYADSVKGRFTISRDNAKNSVYLQMNSLKPEDTAVYYCNARYSGKYDYWRQGTQVTVSS
polyreactivity (PSR sort gate): high polyreactivity

QVQHVESGGGLLQAGGSLRLICAAYGSTFGTYAMGWYRQAPGKERELVATISIGGITYYADSVKGRFTNSRDNAKYTVYLQMNSLKPEVTAVYYCAKDVTDATSRSDPSGDDYWGQGTQVTVSS
polyreactivity (PSR sort gate): low polyreactivity

QVQHVESGGGLLQAGGSLRLSCAASGRIFYGNAMGWYRQATGKERELVAAILWRGGTTYYADSVKGRFTISRDNAMNTVYLLMISLKPEDTSDYNCTADEPYKYYYWGQGTQVTVSS
polyreactivity (PSR sort gate): low polyreactivity

QVQHVESGGGLLQAGGSLRLSCAASGSIFYVYAMGWYRQAPGKERELVASISCGDSSTYYADSVKGRFTISRDNAKNTVYLQMNILIPEDTAVYYCAADDYRQYALYDYWGQGTHVTVSS
polyreactivity (PSR sort gate): low polyreactivity

QVQHVESGGGLVHAGGSLRLSCAASGLIFRNNAMVLYRQAPGTERELDASITSDGSTNYADSVKGRFRISRDNAKNSFYLQMNSLKPEDTAVYYCAADGYTYWYYQLIPDYDYWGQGTQVTVSS
polyreactivity (PSR sort gate): low polyreactivity

QVQHVESGGGLVHPGGILRLSCAASGLTFGRNAMGWYRQAPGKERELVAAISRSGGRTSYADSVKGRLTISRDNAKNTVYLQMNSLKPEDTAVYYCAARSPIYRTTYDYWGQGTQVTVSS
polyreactivity (PSR sort gate): high polyreactivity

QVQHVESGGGLVQAGASLRLSCAASRRTFYRYAMGWSRQAPGKERELVAAISSGGSTNYADCVKGRFTISRDNAKNTVYLHMNRLKPEDTAVYYCAAETRLHRQDYDYWGQGTQVTVSS
polyreactivity (PSR sort gate): low polyreactivity

QVQHVESGGGLVQAGCSLRLSCAASGRIFKPYVMGWYRQAPGKETELVSAISWSGGASTYYADSVKGRFTISRDNAKNTVYLQMNSLKPEDTAVYYCAADPFTIPTSEFYYWGQGTQVTVSS
polyreactivity (PSR sort gate): low polyreactivity

QVQHVESGGGLVQAGCSLRLSCAASGRTFTYYAMGWYRQARGKESELVATISWRGSSTYYADSVKGRFTISRDNAKNTVYLQMNSLKPEDTAFYYCAARTYRWGYEDNYWGQGTQVTVSS
polyreactivity (PSR sort gate): high polyreactivity

QVQHVESGGGLVQAGGSHRLSCAASGRTFDTNDMGWYRQPPGKERELVAVITARGGNTSYADSVKGRFTISRDNAKNPVYLQMNSLKPEDTAVYYCAAESQSTSYGLDYWGQGTQVTVSS
polyreactivity (PSR sort gate): low polyreactivity

QVQHVESGGGLVQAGGSLGLSCAASGRIFGVYAMGWYTQAPGKERELVAAIWSGGSTYYADSVKGRFTISRDNAKNTVYLQMNSLKPEDTAVYYCAADDAYSHRSLYSHNDYWGQGNQVTVSS
polyreactivity (PSR sort gate): low polyreactivity

QVQHVESGGGLVQAGGSLRLNCAASGSTFFGNAMGWYRQAPGKERELVAAISGSGGSTYYADSVKGRFTISRDNAKNTVYLQMNSLKPEDTAVYYCAKYYLTGLARYDYWGQGTQVTVSS
polyreactivity (PSR sort gate): high polyreactivity

QVQHVESGGGLVQAGGSLRLSCAASGFIFGYYTMGWSRQAPGKERELVAAITSGDSTNYADSVKGRFTISRDNAKNTVYLQMNSLKPEDTAVYYCNARGLFTWMDYWGQGTQVTVSS
polyreactivity (PSR sort gate): low polyreactivity

QVQHVESGGGLVQAGGSLRLSCAASGFTFHRYAMGWYRQAAGKERELVARISRSAGSTYYADSVKGRFTISRDNAKNTVYLQMNSLKPEDTAVYYCAAAQRRYGRGYGYWGQGTQVTVSS
polyreactivity (PSR sort gate): high polyreactivity

QVQHVESGGGLVQAGGSLRLSCAASGFTFKFYTMGWYRQAPGKERELVAAISRSGGTTYYADSVKGRFTISRDNAKNTVYLQMTSLKPEDTAVYYCAAPRTKYLSKYGYWGQGTQVTVSS
polyreactivity (PSR sort gate): high polyreactivity

QVQHVESGGGLVQAGGSLRLSCAASGFTFNYYAMGWYRQAPGKERELVAAITSSGGSTYYADSVKGRFTISRDNAKNTVYLQMNSLKPEDTAVYYCNAAVYAHRYIDGFDYWGQGTQVTVSS
polyreactivity (PSR sort gate): high polyreactivity

QVQHVESGGGLVQAGGSLRLSCAASGFTFPSYAMGWYRQAPGKERELVAGISRGGTRTYYADSVKGRFTISRDNAKNTVYLQMYSLKPEDTAVYYCAATHGLRIRFPGDYWGQGTQVTVSS
polyreactivity (PSR sort gate): high polyreactivity

QVQHVESGGGLVQAGGSLRLSCAASGFTFRVYAMGWYRQARGKEMELVAAISRSGGSTYYADSVKRRFTISRDNEKNTVYLQMNSLKPEDTAVYYCGGGWKRGRYDYWGQGTQVTVSS
polyreactivity (PSR sort gate): high polyreactivity

QVQHVESGGGLVQAGGSLRLSCAASGFTFWYYAMGWYRRATGKERELIASISSIGGSTYYADSVKGRYTISRDNAKNTVYLQMNSLKAEDTAVYYCAARYKFLRGGVRRDYWGQGTQVTVSS
polyreactivity (PSR sort gate): high polyreactivity

QVQHVESGGGLVQAGGSLRLSCAASGFTFYSYAMGWYRQAPGKERELVASITSGGSTYYADSVKGRFTISRDNAKNTVYLQMNSLKPEDTAVYYCAAPAVKPRRSYYYWGQGTQVTVSS
polyreactivity (PSR sort gate): high polyreactivity

QVQHVESGGGLVQAGGSLRLSCAASGFTLFWNDMGWYRQAPGKERELVAAITSGDDTYADSVKGRFTISRDNAKNTVYLQMNSLKPEDTAVYYCNKDDPLRNVAQVILYEFYYWGQGTQVTVSS
polyreactivity (PSR sort gate): low polyreactivity

QVQHVESGGGLVQAGGSLRLSCAASGFTSSRNAMGWSRQAPGKERELVATISSGGDTYYADSVKGRFTISRDNAKNSVYLQMNSLKPEYTAVYYCNKDTLYAWGYDYWGQGTQVTVSS
polyreactivity (PSR sort gate): low polyreactivity

QVQHVESGGGLVQAGGSLRLSCAASGGIFYVNAMGWYRQEPGKERELVADITSDGVSKYYADSVKGRFTISRDNAKNTVYLQMNRLKPEDTAVYYCGGDNGGAGYYYGYVWYDYWGQGTQVTVSS
polyreactivity (PSR sort gate): low polyreactivity

QVQHVESGGGLVQAGGSLRLSCAASGGTFYSYAMGWYRQAPGKERELVAAISRRGGSTYYADSVKGRFTISRDNAKNTVYLQLNSLKPEDTAVYYCAAKGPSYGVTRMYYWGQGTQVTVSS
polyreactivity (PSR sort gate): high polyreactivity

QVQHVESGGGLVQAGGSLRLSCAASGIIFLFYAMGWYRQARGKERELVAAITGAGSTNYADSVKGRFTISRDNAKNTVYLQMNRLKPEDTAVYYCAARHYARYDYWGQGTQVTVSS
polyreactivity (PSR sort gate): low polyreactivity

QVQHVESGGGLVQAGGSLRLSCAASGITFRVNAMGWYRQAPGKERELVASISRSGGSTYYADSVKGRFTISRDNAKNTVYLQMNSLKPEVTAVYYCAAAQKVLFYGRWFDYWGQCTQVTVSS
polyreactivity (PSR sort gate): low polyreactivity

QVQHVESGGGLVQAGGSLRLSCAASGITLNSYAMGWYRQAPGTERELVAAISSDGTYYADSVKGRFTISRDNAKNTVYLQMNSLKPEDTAVYYCAAERNHGLVGSESVGRNDYWGQGTQVTVSS
polyreactivity (PSR sort gate): low polyreactivity
